The record followed here is US20150299313A1 (Chugai, published 2015).

B1: H54/L28-IgG1 (antibody, V domains shown)
VH: QVQLQESGPGLVKPSETLSLTCAVSGYSISDDQAWSWVRQPPGEGLEWIGYISYSGITNYNPSLKGRVTISRDTSKNQFSLKLSSVTAADTAAYYCARSLARTTAMDYWGEGTLVTVSS
VL: DIQMTQSPSSLSASVGDSVTITCQASQDISSYLNWYQQKPGKAPELLIYYGSELHSGVPSRFSGSGSGTDFTFTISSLEAEDAATYYCQQGNSLPYTFGQGTKVEIER
notes: Humanized anti-IL-6 receptor antibody without pH or Ca dependency; not treated with sialidase; also called H54/L28-IgG1-SA (+); H54L28-IgG1-SA (+)
B2: GL1-IgG1-SA (-) (antibody)
heavy: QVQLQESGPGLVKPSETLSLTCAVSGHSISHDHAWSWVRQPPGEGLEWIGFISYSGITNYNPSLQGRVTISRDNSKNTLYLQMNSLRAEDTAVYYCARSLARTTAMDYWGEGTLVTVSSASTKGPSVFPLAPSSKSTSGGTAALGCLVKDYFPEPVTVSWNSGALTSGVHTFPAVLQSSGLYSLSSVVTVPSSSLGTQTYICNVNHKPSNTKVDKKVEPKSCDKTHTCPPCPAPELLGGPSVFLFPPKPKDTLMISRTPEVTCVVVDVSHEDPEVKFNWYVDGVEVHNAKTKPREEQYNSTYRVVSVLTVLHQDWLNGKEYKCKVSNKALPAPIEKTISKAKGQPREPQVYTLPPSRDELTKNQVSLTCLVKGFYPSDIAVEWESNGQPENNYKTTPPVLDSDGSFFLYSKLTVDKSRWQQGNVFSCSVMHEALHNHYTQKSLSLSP
light: DIQMTQSPSSLSASVGDSVTITCQASTDISSHLNWYQQKPGKAPELLIYYGSHLLSGVPSRFSGSGSGTDFTFTISSLEAEDAATYYCGQGNRLPYTFGQGTKVEIERTVAAPSVFIFPPSDEQLKSGTASVVCLLNNFYPREAKVQWKVDNALQSGNSQESVTEQDSKDSTYSLSSTLTLSKADYEKHKVYACEVTHQGLSSPVTKSFNRGEC
modifications: N-linked sugar chain at Asn 297 (EU numbering), terminal sialic acid removed
notes: also called GL1-IgG1 treated with neuraminidase/sialidase; Fv4-IgG1
B3: GL1-IgG1-SA (+) (antibody)
heavy: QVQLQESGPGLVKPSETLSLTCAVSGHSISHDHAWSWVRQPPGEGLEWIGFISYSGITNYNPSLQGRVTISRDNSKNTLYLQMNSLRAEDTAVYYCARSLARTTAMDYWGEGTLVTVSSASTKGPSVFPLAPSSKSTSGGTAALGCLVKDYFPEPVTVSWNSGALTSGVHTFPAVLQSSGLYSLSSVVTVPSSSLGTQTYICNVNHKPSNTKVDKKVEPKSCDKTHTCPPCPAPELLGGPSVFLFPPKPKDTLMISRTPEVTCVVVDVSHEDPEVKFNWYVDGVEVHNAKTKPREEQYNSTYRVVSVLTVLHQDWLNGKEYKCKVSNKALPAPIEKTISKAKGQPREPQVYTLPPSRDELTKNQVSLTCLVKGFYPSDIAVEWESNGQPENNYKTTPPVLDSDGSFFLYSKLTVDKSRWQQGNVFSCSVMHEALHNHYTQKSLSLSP
light: B2 light
modifications: N-linked sugar chain at Asn 297 (EU numbering), sialic acid not removed
notes: Same chains as GL1-IgG1-SA (-), not treated with sialidase; also called Fv4-IgG1
B4: GL5-IgG1-SA (-) (antibody)
heavy: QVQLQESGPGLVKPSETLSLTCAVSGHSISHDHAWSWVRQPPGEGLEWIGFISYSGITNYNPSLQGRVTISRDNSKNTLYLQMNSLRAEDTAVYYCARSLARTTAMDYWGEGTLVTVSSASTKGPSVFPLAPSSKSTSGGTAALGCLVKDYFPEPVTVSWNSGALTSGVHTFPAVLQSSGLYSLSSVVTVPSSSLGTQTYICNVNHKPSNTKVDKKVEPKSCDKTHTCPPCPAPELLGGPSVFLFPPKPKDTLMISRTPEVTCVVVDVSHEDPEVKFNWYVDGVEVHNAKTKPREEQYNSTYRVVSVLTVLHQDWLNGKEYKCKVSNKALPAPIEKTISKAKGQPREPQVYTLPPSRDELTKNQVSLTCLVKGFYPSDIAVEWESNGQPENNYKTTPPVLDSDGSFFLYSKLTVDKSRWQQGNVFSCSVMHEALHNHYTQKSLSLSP
light: B2 light with S18N, Q24N
modifications: N-linked sugar chains at two sites of the light chain (Asn 20 and Asn 24, Kabat), sialic acid removed; N-linked sugar chain at Asn 297 (EU numbering), terminal sialic acid removed
notes: Treated with sialidase
B5: GL1-M111-SA (-) (antibody, human IgG1, kappa, N297A)
heavy: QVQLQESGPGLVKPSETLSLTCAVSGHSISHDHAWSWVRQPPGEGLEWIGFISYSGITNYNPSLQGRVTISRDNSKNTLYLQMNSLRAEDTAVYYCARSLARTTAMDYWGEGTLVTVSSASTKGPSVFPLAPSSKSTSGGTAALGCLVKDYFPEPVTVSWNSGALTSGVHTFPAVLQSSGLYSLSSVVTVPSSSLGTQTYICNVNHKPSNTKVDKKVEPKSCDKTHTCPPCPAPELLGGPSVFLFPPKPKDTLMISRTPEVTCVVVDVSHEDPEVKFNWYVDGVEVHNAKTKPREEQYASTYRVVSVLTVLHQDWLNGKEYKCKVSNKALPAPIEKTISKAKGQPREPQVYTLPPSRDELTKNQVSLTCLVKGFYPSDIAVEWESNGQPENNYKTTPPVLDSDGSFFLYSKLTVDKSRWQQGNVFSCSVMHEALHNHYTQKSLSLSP
light: B2 light
notes: No sugar chain on heavy or light chain; treated with neuraminidase
B6: GL4-M111-SA (-) (antibody, human IgG1, kappa, N297A)
heavy: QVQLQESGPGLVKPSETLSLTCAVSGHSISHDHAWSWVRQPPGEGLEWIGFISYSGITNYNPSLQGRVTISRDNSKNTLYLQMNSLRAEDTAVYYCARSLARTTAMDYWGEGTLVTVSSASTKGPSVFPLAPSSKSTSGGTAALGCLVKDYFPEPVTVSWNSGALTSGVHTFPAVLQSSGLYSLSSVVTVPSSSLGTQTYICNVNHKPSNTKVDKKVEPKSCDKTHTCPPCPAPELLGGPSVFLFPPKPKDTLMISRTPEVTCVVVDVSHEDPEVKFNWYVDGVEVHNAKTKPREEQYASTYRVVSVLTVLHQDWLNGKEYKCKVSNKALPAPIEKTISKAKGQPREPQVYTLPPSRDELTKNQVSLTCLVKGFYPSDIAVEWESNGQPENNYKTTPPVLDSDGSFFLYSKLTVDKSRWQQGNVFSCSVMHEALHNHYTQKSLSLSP
light: B2 light with Q24N
modifications: N-linked complex sugar chain at the site introduced by Gln 24 to Asn (Kabat), sialic acid removed, terminal galactose exposed
notes: Treated with neuraminidase
B7: GL10-M111-SA (-) (antibody, human IgG1, kappa, N297A)
heavy: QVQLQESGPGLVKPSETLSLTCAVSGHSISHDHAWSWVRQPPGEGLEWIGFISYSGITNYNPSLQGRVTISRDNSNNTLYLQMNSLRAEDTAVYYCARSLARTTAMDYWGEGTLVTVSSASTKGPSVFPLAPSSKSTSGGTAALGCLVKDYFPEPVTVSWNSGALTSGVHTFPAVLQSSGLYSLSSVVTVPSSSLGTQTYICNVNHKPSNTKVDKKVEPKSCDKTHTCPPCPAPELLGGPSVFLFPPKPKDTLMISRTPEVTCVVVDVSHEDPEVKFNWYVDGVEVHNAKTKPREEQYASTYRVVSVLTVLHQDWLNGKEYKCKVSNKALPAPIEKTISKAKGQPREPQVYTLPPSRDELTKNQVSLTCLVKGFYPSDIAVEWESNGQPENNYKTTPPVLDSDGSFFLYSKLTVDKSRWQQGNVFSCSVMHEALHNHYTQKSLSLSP
light: B2 light with S18N, Q24N
modifications: two N-linked complex sugar chains at the sites introduced by Thr 20 to Asn and Gln 24 to Asn (Kabat), sialic acid removed; N-linked complex sugar chain at the site introduced by Lys 75 to Asn (Kabat), sialic acid removed
notes: Treated with neuraminidase
B8: GL7-M111-SA (-) (antibody, human IgG1, kappa, N297A)
heavy: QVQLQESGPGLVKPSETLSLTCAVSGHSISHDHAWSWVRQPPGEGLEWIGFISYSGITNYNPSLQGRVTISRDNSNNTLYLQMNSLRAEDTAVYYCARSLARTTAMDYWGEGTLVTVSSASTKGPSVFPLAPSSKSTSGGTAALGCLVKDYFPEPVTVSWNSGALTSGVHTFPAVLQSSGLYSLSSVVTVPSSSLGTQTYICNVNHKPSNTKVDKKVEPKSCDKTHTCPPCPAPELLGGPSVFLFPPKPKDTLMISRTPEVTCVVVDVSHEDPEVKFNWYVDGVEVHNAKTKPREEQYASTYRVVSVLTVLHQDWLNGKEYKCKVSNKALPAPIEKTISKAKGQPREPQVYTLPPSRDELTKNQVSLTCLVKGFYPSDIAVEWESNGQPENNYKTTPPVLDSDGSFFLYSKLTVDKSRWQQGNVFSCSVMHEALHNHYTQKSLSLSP
light: B2 light with S18N
modifications: N-linked complex sugar chain at the site introduced by Ser 18 to Asn (Kabat), sialic acid removed; N-linked complex sugar chain at the site introduced by Lys 75 to Asn (Kabat), sialic acid removed
notes: Treated with neuraminidase
B9: GL3-M111-SA (-) (antibody, human IgG1, kappa, N297A)
heavy: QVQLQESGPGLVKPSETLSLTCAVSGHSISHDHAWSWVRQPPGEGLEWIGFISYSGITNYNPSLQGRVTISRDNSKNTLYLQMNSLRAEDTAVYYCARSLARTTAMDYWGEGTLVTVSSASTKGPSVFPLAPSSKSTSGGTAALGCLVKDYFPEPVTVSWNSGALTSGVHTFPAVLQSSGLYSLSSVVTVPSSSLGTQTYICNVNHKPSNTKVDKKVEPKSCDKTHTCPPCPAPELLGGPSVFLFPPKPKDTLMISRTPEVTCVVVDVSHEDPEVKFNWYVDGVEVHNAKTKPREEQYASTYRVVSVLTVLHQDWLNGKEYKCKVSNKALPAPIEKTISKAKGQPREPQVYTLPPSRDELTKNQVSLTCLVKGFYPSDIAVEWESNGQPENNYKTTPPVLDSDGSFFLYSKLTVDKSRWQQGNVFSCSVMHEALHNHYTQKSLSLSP
light: B2 light with T20N
modifications: N-linked complex sugar chain at the site introduced by Thr 20 to Asn (Kabat), sialic acid removed, terminal galactose exposed
notes: Treated with neuraminidase
B10: GL8-M111-SA (-) (antibody, human IgG1, kappa, N297A)
heavy: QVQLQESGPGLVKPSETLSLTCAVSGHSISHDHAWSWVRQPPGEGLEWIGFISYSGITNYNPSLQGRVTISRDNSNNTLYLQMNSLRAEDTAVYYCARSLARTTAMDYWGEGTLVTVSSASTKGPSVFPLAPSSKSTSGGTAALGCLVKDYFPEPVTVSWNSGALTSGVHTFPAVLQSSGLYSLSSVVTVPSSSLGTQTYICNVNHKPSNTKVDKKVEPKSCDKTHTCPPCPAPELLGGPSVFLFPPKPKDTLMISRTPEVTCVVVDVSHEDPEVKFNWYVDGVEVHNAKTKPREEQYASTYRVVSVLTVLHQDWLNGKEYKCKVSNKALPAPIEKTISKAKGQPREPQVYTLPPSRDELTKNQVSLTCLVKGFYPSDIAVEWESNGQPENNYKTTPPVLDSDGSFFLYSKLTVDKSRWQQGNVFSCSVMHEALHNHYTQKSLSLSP
light: B2 light with T20N
modifications: N-linked complex sugar chain at the site introduced by Thr 20 to Asn (Kabat), sialic acid removed; N-linked complex sugar chain at the site introduced by Lys 75 to Asn (Kabat), sialic acid removed
notes: Treated with neuraminidase
B11: GL2-M111-SA (-) (antibody, human IgG1, kappa, N297A)
heavy: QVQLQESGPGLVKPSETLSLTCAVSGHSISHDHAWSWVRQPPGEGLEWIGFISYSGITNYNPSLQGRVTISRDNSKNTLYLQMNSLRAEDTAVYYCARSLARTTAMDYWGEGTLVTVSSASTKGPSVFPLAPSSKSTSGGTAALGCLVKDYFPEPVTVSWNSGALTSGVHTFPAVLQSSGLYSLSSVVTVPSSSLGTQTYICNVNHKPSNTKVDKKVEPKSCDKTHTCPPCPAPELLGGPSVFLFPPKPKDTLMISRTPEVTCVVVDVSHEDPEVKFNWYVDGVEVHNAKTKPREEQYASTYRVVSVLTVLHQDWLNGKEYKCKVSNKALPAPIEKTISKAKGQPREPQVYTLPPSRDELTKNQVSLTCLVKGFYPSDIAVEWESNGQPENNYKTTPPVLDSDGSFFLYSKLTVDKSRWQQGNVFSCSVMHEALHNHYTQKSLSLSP
light: B2 light with S18N
modifications: N-linked complex sugar chain at the site introduced by Ser 18 to Asn (Kabat), sialic acid removed, terminal galactose exposed
notes: Treated with neuraminidase
B12: GL6-M111-SA (-) (antibody, human IgG1, kappa, N297A)
heavy: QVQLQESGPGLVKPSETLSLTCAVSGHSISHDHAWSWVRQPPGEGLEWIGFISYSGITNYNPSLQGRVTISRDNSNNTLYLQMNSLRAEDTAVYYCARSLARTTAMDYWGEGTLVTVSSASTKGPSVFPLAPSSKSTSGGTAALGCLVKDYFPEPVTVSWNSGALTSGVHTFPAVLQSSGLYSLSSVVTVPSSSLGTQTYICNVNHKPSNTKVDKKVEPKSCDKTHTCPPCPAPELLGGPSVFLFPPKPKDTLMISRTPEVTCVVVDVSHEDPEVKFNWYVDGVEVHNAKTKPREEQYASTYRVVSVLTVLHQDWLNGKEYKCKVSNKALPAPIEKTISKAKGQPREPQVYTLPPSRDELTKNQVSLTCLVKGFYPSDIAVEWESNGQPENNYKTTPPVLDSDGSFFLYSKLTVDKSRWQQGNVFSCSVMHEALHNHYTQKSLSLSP
light: B2 light
modifications: N-linked complex sugar chain at the site introduced by Lys 75 to Asn (Kabat), sialic acid removed, terminal galactose exposed
notes: Treated with neuraminidase
B13: GL9-M111-SA (-) (antibody, human IgG1, kappa, N297A)
heavy: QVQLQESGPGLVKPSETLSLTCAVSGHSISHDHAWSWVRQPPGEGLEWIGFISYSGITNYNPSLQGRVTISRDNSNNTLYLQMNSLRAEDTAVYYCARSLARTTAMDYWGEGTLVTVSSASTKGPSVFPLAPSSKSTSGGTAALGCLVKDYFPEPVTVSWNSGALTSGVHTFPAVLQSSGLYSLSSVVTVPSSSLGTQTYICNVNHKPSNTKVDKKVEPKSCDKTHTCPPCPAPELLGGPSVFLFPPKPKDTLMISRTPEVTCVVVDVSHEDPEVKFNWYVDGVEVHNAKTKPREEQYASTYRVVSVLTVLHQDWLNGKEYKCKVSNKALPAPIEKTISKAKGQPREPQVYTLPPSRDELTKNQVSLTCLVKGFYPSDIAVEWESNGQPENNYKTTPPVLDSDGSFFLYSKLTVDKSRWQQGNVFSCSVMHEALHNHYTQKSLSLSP
light: B2 light with Q24N
modifications: N-linked complex sugar chain at the site introduced by Gln 24 to Asn (Kabat), sialic acid removed; N-linked complex sugar chain at the site introduced by Lys 75 to Asn (Kabat), sialic acid removed
notes: Treated with neuraminidase
B14: GL5-M111-SA (-) (antibody, human IgG1, kappa, N297A)
heavy: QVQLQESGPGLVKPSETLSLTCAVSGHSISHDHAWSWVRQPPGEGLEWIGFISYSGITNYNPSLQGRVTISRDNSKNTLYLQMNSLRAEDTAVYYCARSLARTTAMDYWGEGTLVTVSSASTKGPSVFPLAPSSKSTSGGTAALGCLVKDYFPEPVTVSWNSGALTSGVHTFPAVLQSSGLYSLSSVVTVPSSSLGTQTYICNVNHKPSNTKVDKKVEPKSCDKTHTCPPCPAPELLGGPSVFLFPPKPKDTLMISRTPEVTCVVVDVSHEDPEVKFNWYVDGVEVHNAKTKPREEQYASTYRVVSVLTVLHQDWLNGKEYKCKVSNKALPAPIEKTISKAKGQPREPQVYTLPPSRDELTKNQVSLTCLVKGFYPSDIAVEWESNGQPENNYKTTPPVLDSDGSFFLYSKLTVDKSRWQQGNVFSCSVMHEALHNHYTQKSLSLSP
light: B2 light with S18N, Q24N
modifications: two N-linked complex sugar chains (G2/G3/G4 combinations) at the sites introduced by Thr 20 to Asn and Gln 24 to Asn (Kabat), sialic acid removed, terminal galactose exposed
notes: Treated with neuraminidase

Where a chain is given by its changes, count along the chain named.

One experiment concerns the target T1, soluble human IL-6 receptor (human, UniProt P08887 20-357).
T1 construct: also called hsIL-6R; hIL6R
T1 sequence: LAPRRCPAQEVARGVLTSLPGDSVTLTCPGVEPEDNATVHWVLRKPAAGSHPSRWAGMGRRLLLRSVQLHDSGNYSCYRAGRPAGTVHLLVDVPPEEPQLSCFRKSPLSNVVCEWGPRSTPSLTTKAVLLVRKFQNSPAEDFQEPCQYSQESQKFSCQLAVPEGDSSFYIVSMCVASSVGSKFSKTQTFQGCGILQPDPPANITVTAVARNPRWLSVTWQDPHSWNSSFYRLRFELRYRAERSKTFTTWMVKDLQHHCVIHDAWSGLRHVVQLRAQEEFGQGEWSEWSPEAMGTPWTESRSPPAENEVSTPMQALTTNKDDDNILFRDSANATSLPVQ
Nature of the experiment: SPR (Biacore T100), antibody captured on anti-human IgG F(ab')2, human IL-6 receptor as analyte, 37 C, pH 6.0. As for the experimental part: (§1) GL1-IgG1-SA (−) and GL5-IgG1-SA (−) were treated with sialidase and then used as measurement samples. An appropriate amount of Anti-Human IgG (γ-chain specific), F(ab′)2 fragment antibody produced in goat (Sigma) was immobilized onto Sensor chip CM5 (GE Healthcare) in accordance with the amine coupling method and then a target antibody was allowed to capture. Subsequently, a human IL-6 receptor dilution solution and a running buffer (a blank) were injected at a flow rate of 20 μL/min for 3 minutes to allow the human IL-6 receptor to interact with the antibody captured on the sensor chip. Either one of two types of running buffers pH 7.4 and pH 6.0 containing 10 mmol/L ACES, 150 mmol/L NaCl, and 0.05% (w/v) Tween20 was used and each buffer was employed for dilution of IL-6R. Thereafter, a running buffer was fed at a flow rate 20 μL/min for 5 minutes. After dissociation of the IL-6 receptor was observed, 10 mmol/L Glycine-HCl (pH 1.5) was injected at a flow rate of 30 μL/min for 5 seconds. This procedure was repeated five times to regenerate the sensor chip. All samples were measured at 37° C. From the sensorgram obtained by measurement, an association constant, ka (1/Ms) and a dissociation constant kd (1/s) as kinetics parameters were computationally obtained. From the values, KD (M) of each antibody to a human IL-6 receptor was calculated. Individual parameters were calculated by use of Biacore T100 Evaluation Software (GE Healthcare).
(In general: Surface plasmon resonance follows binding to a sensor surface in real time, without labels.)
By Kd is commonly meant the free concentration of one partner at which half of the binding sites on the other are occupied at equilibrium, for simple one-to-one binding. Take B1: the affinity, expressed as Kd, was 3.4 nM.
The same measure, in the same setting: then B2, with 61 nM.
Take B3: the Kd came out at 66 nM.
As to B4, the Kd was determined as 52 nM.

The target in a further experiment is T1, soluble human IL-6 receptor. Nature of the experiment: SPR (Biacore T100), antibody captured on protein A, human IL-6 receptor as analyte, 37 C, pH 7.4. On the procedure: (§2) Kinetic analysis on the antigen-antibody reaction between each of GL1-IgG1-SA (−), GL1-M111-SA (−), GL2-M111-SA (−), GL3-M111-SA (−), GL4-M111-SA (−), GL5-M111-SA (−), GL6-M111-SA (−), GL7-M111-SA (−), GL8-M111-SA (−), GL9-M111-SA (−), GL10-M111-SA (−) and a human IL-6 receptor was performed by use of Biacore T100 (GE Healthcare). An appropriate amount of protein A (Invitrogen) was immobilized onto Sensor chip CM5 (GE Healthcare) by the amine coupling method and then a target antibody was allowed to capture. Subsequently, a human IL-6 receptor dilution solution and a running buffer (a blank) were injected at a flow rate of 20 μL/min for 3 minutes to allow the human IL-6 receptor to interact with the antibody captured on the sensor chip. Either one of two types of running buffers pH 7.4 and pH 6.0 containing 10 mmol/L ACES, 150 mmol/L NaCl, and 0.05% (w/v) Tween20 was used and each buffer was employed for dilution of IL-6R. Thereafter, the running buffer was fed at a flow rate of 20 μL/min for 5 minutes. After observation of dissociation of the IL-6 receptor, 10 mmol/L Glycine-HCl (pH 1.5) was injected at a flow rate of 30 μL/min for 30 seconds to regenerate the sensor chip. All samples were measured at 37° C. From the sensorgram obtained by measurement, an association constant, ka (1/Ms) and a dissociation constant, kd (1/s) as kinetics parameters were computationally obtained. Based on the obtained values, KD (M) of each antibody to a human IL-6 receptor was calculated. Individual parameters were calculated by use of Biacore T100 Evaluation Software (GE Healthcare).
Take B5: the Kd turned out to be 1.8 nM.
The same measure, in the same setting: then B6, with 1.7 nM.
The same measure, in the same setting: then B7, with 2.4 nM; and B8, with 2.4 nM; and B9, with 1.3 nM.
Still for that read-out and setting: then B2, with 1.8 nM; and B10, with 2 nM.
Molecule B11 displayed a Kd of 1.6 nM.
Same read-out and setting: then B12, with 2.6 nM; and B13, with 2.3 nM; and B14, with 1.5 nM.

For another experiment the target is unchanged. Nature of the experiment: SPR (Biacore T100), antibody captured on anti-human IgG F(ab')2, human IL-6 receptor as analyte, 37 C, pH 7.4. On the procedure:
as §1
Molecule B1 had a dissociation constant Kd of 3.9 nM.
In turn, B2 registered a Kd of 2.2 nM.
Consider B3, for which binding was put at a Kd of 2.1 nM.
Take B4: binding was characterised by a dissociation constant (Kd) of 1.9 nM.

For the next experiment the target is unchanged. Described as above. This is another data set of the same source. As for the experimental part: (§3) Then, kinetic analysis of an antigen-antibody reaction between each of GL1-M111-SA (−) and GL5-M111-SA (−) and a human IL-6 receptor was performed by using Biacore T100 (GE Healthcare). In both cases, measurement was performed by using an antibody treated with sialidase as a sample. An appropriate amount of Anti-Human IgG (γ-chain specific) F(ab′)2 fragment antibody produced in goat (Sigma) was immobilized onto Sensor chip CM5 (GE Healthcare) in accordance with the amine coupling method and then a target antibody was allowed to capture. Subsequently, a human IL-6 receptor dilution solution and a running buffer (a blank) were injected at a flow rate of 20 μL/min for 3 minutes to allow the human IL-6 receptor to interact with the antibody captured on the sensor chip. Either one of two types of running buffers pH 7.4 and pH 6.0 containing 10 mmol/L ACES, 150 mmol/L NaCl, and 0.05% (w/v) Tween20 was used, and each buffer was employed for dilution of IL-6R. Thereafter, a running buffer was fed at a flow rate 20 μL/min for 5 minutes. After dissociation of the IL-6 receptor was observed, 10 mmol/L Glycine-HCl (pH 1.5) was injected at a flow rate 30 μL/min for 5 seconds. […] All samples were measured at 37° C. […] From the values, KD (M) of each antibody to a human IL-6 receptor was calculated. Individual parameters were calculated by use of Biacore T100 Evaluation Software (GE Healthcare).
The molecule B5 showed a Kd of 2 nM.
Same read-out and setting: then B14, with 1.9 nM.

Another experiment has the same target. Nature of the experiment: SPR (Biacore T100), antibody captured on protein A, human IL-6 receptor as analyte, 37 C, pH 6.0. As for the experimental part: as §2
B5 returned a Kd of 150 nM.
Same read-out and setting: then B6, with 140 nM.
On the same count and under the same terms, then B7, with 130 nM.
Same read-out and setting: then B8, with 150 nM; and B9, with 80 nM.
In the case of B2, the Kd was 150 nM.
On the same count and under the same terms, then B10, with 110 nM; and B11, with 110 nM.
Same read-out and setting: then B12, with 110 nM; and B13, with 110 nM; and B14, with 99 nM.

The target is the same in a further experiment. Nature of the experiment: SPR (Biacore T100), antibody captured on anti-human IgG F(ab')2, human IL-6 receptor as analyte, 37 C, pH 6.0. This is another data set of the same source. On the procedure: as §3
Molecule B5 returned a Kd of 66 nM.
As for B14, binding was characterised by a dissociation constant (Kd) of 57 nM.
